Measured values as given in paper PMC4764120, “Crystal Structure of Alcohol Oxidase from Pichia pastoris” (PLoS ONE, 2016).

Biological target: the molecule itself
Assay: crystal structure; X-ray, 2.35 Å, space group P21, eight monomers in the asymmetric unit; crystals grown at 4°C in 100 mM HEPES pH 7.5, 200 mM CaCl2, 33.3% PEG 400; interfaces analysed with PISA

B1: alcohol oxidase AOX1 from Pichia pastoris (enzyme, UniProt P04842 1-663, looked up)
chain: MAIPEEFDILVLGGGSSGSCIAGRLANLDHSLKVGLIEAGENNLNNPWVYLPGIYPRNMKLDSKTASFYTSNPSPHLNGRRAIVPCANVLGGGSSINFMMYTRGSASDYDDFQAEGWKTKDLLPLMKKTETYQRACNNPDIHGFEGPIKVSFGNYTYPVCQDFLRASESQGIPYVDDLEDLVTAHGAEHWLKWINRDTGRRSDSAHAFVHSTMRNHDNLYLICNTKVDKIIVEDGRAAAVRTVPSKPLNPKKPSHKIYRARKQIVLSCGTISSPLVLQRSGFGDPIKLRAAGVKPLVNLPGVGRNFQDHYCFFSPYRIKPQYESFDDFVRGDAEIQKRVFDQWYANGTGPLATNGIEAGVKIRPTPEELSQMDESFQEGYREYFEDKPDKPVMHYSIIAGFFGDHTKIPPGKYMTMFHFLEYPFSRGSIHITSPDPYAAPDFDPGFMNDERDMAPMVWAYKKSRETARRMDHFAGEVTSHHPLFPYSSEARALEMDLETSNAYGGPLNLSAGLAHGSWTQPLKKPTAKNEGHVTSNQVELHPDIEYDEEDDKAIENYIREHTETTWHCLGTCSIGPREGSKIVKWGGVLDHRSNVYGVKGLKVGDLSVCPDNVGCNTYTTALLIGEKTATLVGEDLGYSGEALDMTVPQFKLGTYEKTGLARF
notes: Alcohol oxidase AOX1, Pichia pastoris, UniProt P04842, 663 residues as printed; identified by mass spectrometry as the host's own protein; the final crystallographic model holds residues 2 to 663 of each monomer; No tag: the protein comes from the expression host itself; also called methanol oxidase AOX1
  stoichiometry N: 8
